Test results as given in patent publication US20240026407A1, “MODIFICATION OF SAPONINS” (GLAXOSMITHKLINE BIOLOGICALS SA, priority 2020, published 2024).

Key:
[1] = Example 10: deglucosylation of saponins in crude bark extract (50%) using WT and engineered glucosidases G1 to G5; type: biochemical, Quillaja saponaria; details: 50% CBE, 35 degC; for % Right Peak: starting CBE 26; for % Left Peak: starting CBE 30; for % Middle Peak: starting CBE 44
Experimental: Lyophilised powders from clarified cell lysate expressing glucosidases (from Example 8 WT glucosidase and engineered glucosidase polypeptides G1 to G5) and rhamnosidases (from Example 9 WT rhamnosidase and engineered rhamnosidase polypeptides R1 to R5) were dissolved in 200 mM sodium acetate aqueous solution at pH 5.8 to prepare the enzyme solutions at 4 fold the final reaction concentration as shown in Tables 19 and 20.
Each glucosidase solution was combined with an equal volume of 200 mM sodium acetate aqueous solution at pH 5.8 and separately with an equal volume of 200 mM sodium acetate aqueous solution at pH 5.8 containing 2 mg/ml rhamnosidase R5. This is a sufficient loading of rhamnosidase to effect complete hydrolysis of the relevant rhamnose moiety within 4 hours.
CBE was adjusted to pH of 6.0 to 6.2 with 2M sodium hydroxide and an equal volume added to the enzyme solution to prepare the reaction mix (i.e. 50% CBE concentration in reaction mix) and the concentration of glucosidase and/or rhamnosidase is shown in Tables 19 and 20. The reaction mix was heated to 35 degC for the time indicated in Tables 19 and 20, after which the reaction was quenched by addition of an equal volume of MeCN containing 2% acetic acid and shaken at room temperature for 10 mins prior to centrifugation (10 min, 4 degC) to remove particulates. Samples were analysed by UV HPLC using method of Experiment 4-4.
The change in composition of the Left, Middle and Right peaks is shown in Tables 19 and 20. The composition changes by the action of the enzymes depending on the presence or absence of the partner enzyme. The extent of reaction is proportional to the enzyme concentration and the reaction time under these conditions. The tables show data for enzyme concentrations and the reaction times providing for equivalent extents of reaction. The improvement resulting from the mutations introduced for each variant is equal to the fold change in enzyme concentration×time (i.e. fold improvement=(enzyme concentration×time) for preceding variant÷(enzyme concentration×time) for later variant). A cumulative fold improvement over the original enzyme variant is calculated by the product of the individual fold improvements.

[2] = Example 8: screening of glucosidase variants for deglycosylation of saponins in crude bark extract (FIOP); type: biochemical, Quillaja saponaria; details: for Cumulative FIOP (cf WT): estimate; for FIOP: fold improvement over parent
Experimental: Libraries of genetic variants encoding mutations in the wild type Modestobacter marinus glucosidase (SEQ ID No. 262) were prepared using molecular biology techniques, enzymes were prepared linked to an N-terminally located His-tag. Single monoclonal colonies were grown in 400 ul of expression medium and protein expressed. Cell pellets were lysed in 200 ul of the relevant buffer (Table 16)
Lysate was diluted appropriately in the relevant buffer to allow a lysate loading of the indicated % loading (1% loading corresponds to use of 2 ul original lysate in a 200 ul reaction). In some experiments a rhamnosidase was also present during the screening reaction (and also in controls, negating any impact on results).
Crude bark extract (CBE) obtained by aqueous extraction of Quillaja saponaria and containing at least 2.80 mg/ml QS-21 (by HPLC-UV). The pH of CBE was adjusted to pH 6 by dropwise addition of 2M NaOH with stirring. The relevant concentration of the relevant glucosidase was added. The appropriate relative volume of pH 6 CBE (160 ul (for 80%) or 150 ul (for 75%)) was added to each well of the reaction plate. The reaction plate was sealed and incubated at the relevant temperature with shaking overnight for between 18 and 22 hours.
The reaction plate was quenched by adding 200 uL of MeCN (2% AcOH, 1 mg/mL hexanophenone) to each well of the plates. The quenched reaction plate was re-sealed and incubated at 20 deg C. with shaking for 10 min. The reaction plate was then centrifuged (10 min, 4 degC).
200 uL was transferred from each well of the quenched plate to the corresponding wells of a fresh 96 well plate and sealed. The plate was analysed by UV HPLC with the method below:
A negative control (a lysate not expressing test enzymes) and a positive control (expressing the parent comparator—wild type or previous variant as appropriate). Fold improvement over parent (FIOP) for the glucosidase (shorter method) is calculated as follows:
% right peak=100*right peak area/(right peak area+left peak area)
Average % right peak area is calculated for negative controls (per plate) and subtracted from all wells to give the increase in % right peak for each well above average negative control Average increase in % right peak is calculated for positive controls per plate
FIOP=observed increase in % right peak divided by average positive control increase

[3] = glucosidase 0.1 mg/ml + rhamnosidase R5 0.5 mg/ml, 4 h
[4] = glucosidase 0.1 mg/ml, no rhamnosidase, 4 h
[5] = screen temp 35, pH 6, lysate loading 0.14%, CBE loading 75%, 100 mM Sodium acetate, Rham Present
[6] = glucosidase 1.56 mg/ml + rhamnosidase R5 0.5 mg/ml, 7 h
[7] = glucosidase 1.56 mg/ml, no rhamnosidase, 7 h
[8] = screen temp 20, pH 6, lysate loading 10%, CBE loading 80%, 100 mM Potassium phosphate, Rham None

B1: Variant G5: engineered glucosidase polypeptide, variant of Modestobacter marinus glucosidase SEQ ID No. 262 (protein)
chain: MNPASSTRTDTMTDTTARTDSRLTDALAALSLEQKVQLLTGRDYWNTWPIEEIGLRRILVSDGPSGVRGEVWDERDPSLNLPSATALASAWDPDIARRYGAAAAVEARRKGVDVVLGPTINLHRSPLGGRHFEAFSEDPVLTAELAAAYVTGVQDNGVGATPKHYVANDFETDRFTVDVRADERTLRELYLLAFEKAVTEARAWLVMSAYNGINGATATENDLLETPLNSEWGFDGVVVSDWTAVRSLESARSSQDLVMPGPLGPWGDALVEAVRTGAIDESVVDRKVLRILTLAQRVGALEGSPAIDPVWVEDGVALAREAAVEGTVLLENRDELPWDATSLRKVAVIGNNAAWAMTQGGGSANVCPEYTVSPLDGVRAALPDAEVSYSLGAVVRDGLVELPLAELTNPVTGGPGLRARFLTADGAELFGEDRRKSVLVYQGGDAPIAAAATYELTARWTPTESQTVRLGFACFGAAQLYVDGELLVESDLQPSGTDLGAAFMNPLTASAEVELVAGKPVDVRLVHDLSAKEGFAAHALILQLGTEPAEVDEDALIAEAAEAAEAADVVLVVVGTNSIVESEGYDRESLSLPGRQDDLVRAVVAANPRTVVLVNAGAPVLLPWRDDVAALLLGWFGGQEFGNAVADVLLGVAEPGGRLPTTWPAAEADVPVLSCTPVDGVVEYTEGIHIGYRAWLRSGATPAYWFGSGQGYTCVELTGVEAPSRARPGEIVTVSVEVANRGERDGKQVVQVYAEKPDSTVDRPVRWLVGSAPVRVPAGQTAQVEVAVPTRYLAHWAGGWQYEPGVYRLRVGTTAVELPLETTLEVSA
modifications: Seq ID No. 262 with mutations F44Y, V263L, R357M, T365N, F442Q, L474C, I475F, F541I, A355W, L367C, Q396R
For B1, the “time to complete hydrolysis of the relevant glucose moiety” value ([1]; 2 mg/ml glucosidase G5 solution (before mixing with rhamnosidase solution and CBE)) was at most 4 h, the “cumulative fold improvement over WT glucosidase” value ([1]; from enzyme concentration x time for equivalent extent of reaction) was “approximately 800 fold” and the “% change in Left Peak” value [1, 3] was −34%. For the same molecule, the “% change in Middle Peak” value [1, 3] was −83%, the “% change in Right Peak” value [1, 3] was 280% and the “Cumulative Fold improvement in primary enzyme loading × time” value [1, 3] was 834. For the same molecule, the “Fold improvement in primary enzyme loading × time” value [1, 3] was 6.5, the “% Right Peak” value [1, 3] was 73% and the “% Left Peak” value [1, 3] was 20%. The “% Middle Peak” value [1, 3] was 7%, the “% change in Left Peak” value [1, 4] was −11% and the “% change in Middle Peak” value [1, 4] was −56%. For the same molecule, the “% change in Right Peak” value [1, 4] was 208%, the “Cumulative Fold improvement in primary enzyme loading × time” value [1, 4] was 834 and the “Fold improvement in primary enzyme loading × time” value [1, 4] was 6.5. For the same molecule, the “% Right Peak” value [1, 4] was 54%, the “% Left Peak” value [1, 4] was 27% and the “% Middle Peak” value [1, 4] was 19%. The “Cumulative FIOP (cf WT)” value [2, 5] was 900 and the FIOP [2, 5] was 3.

B2: Variant G2: engineered glucosidase polypeptide, variant of Modestobacter marinus glucosidase SEQ ID No. 262 (protein)
chain: MNPASSTRTDTMTDTTARTDSRLTDALAALSLEQKVQLLTGRDFWNTWPIEEIGLRRILVSDGPSGVRGEVWDERDPSLNLPSATALASAWDPDIARRYGAAAAVEARRKGVDVVLGPTINLHRSPLGGRHFEAFSEDPVLTAELAAAYVTGVQDNGVGATPKHYVANDFETDRFTVDVRADERTLRELYLLAFEKAVTEARAWLVMSAYNGINGATATENDLLETPLNSEWGFDGVVVSDWTAVRSLESARSSQDLVMPGPVGPWGDALVEAVRTGAIDESVVDRKVLRILTLAQRVGALEGSPAIDPVWVEDGVALAREAAVEGTVLLENRDELPWDATSLRKVAVIGNNAAAAMTQGGGSANVLPEYTVSPLDGVRAALPDAEVSYSLGAVVQDGLVELPLAELTNPVTGGPGLRARFLTADGAELFGEDRRKSVLVYFGGDAPIAAAATYELTARWTPTESQTVRLGFFCFGAAQLYVDGELLVESDLQPSGTDLGAAFMNPLTASAEVELVAGKPVDVRLVHDLSAKEGFAAHALFLQLGTEPAEVDEDALIAEAAEAAEAADVVLVVVGTNSIVESEGYDRESLSLPGRQDDLVRAVVAANPRTVVLVNAGAPVLLPWRDDVAALLLGWFGGQEFGNAVADVLLGVAEPGGRLPTTWPAAEADVPVLSCTPVDGVVEYTEGIHIGYRAWLRSGATPAYWFGSGQGYTCVELTGVEAPSRARPGEIVTVSVEVANRGERDGKQVVQVYAEKPDSTVDRPVRWLVGSAPVRVPAGQTAQVEVAVPTRYLAHWAGGWQYEPGVYRLRVGTTAVELPLETTLEVSA
modifications: Seq ID No. 262 with mutations T365N, R357M, A473F, L474C, I475F
With B2 the “% change in Left Peak” value [1, 6] was −26%, the “% change in Middle Peak” value [1, 6] was −82% and the “% change in Right Peak” value [1, 6] was 269%. The “Cumulative Fold improvement in primary enzyme loading × time” value [1, 6] was 32, the “Fold improvement in primary enzyme loading × time” value [1, 6] was 4.0 and the “% Right Peak” value [1, 6] was 70%. For the same molecule, the “% Left Peak” value [1, 6] was 22%, the “% Middle Peak” value [1, 6] was 8% and the “% change in Left Peak” value [1, 7] was −15%. For the same molecule, the “% change in Middle Peak” value [1, 7] was −57%, the “% change in Right Peak” value [1, 7] was 213% and the “Cumulative Fold improvement in primary enzyme loading × time” value [1, 7] was 32. The “Fold improvement in primary enzyme loading × time” value [1, 7] was 4.0, the “% Right Peak” value [1, 7] was 55% and the “% Left Peak” value [1, 7] was 26%. The “% Middle Peak” value [1, 7] was 19%, the “Cumulative FIOP (cf WT)” value [2, 8] was 50 and the FIOP [2, 8] was 10.
